Experimental data reported in publication PMC4104026.

Target: Hfq (His6-tagged) (UniProt P0A6X3 1-102)
Assay: EMSA; affinity comparable to GcvB; tRNA competitor; Single-RNA EMSA: 10 mM Tris-HCl pH 7.4, 0.1 mM EDTA, 10 mM NH4Cl, 10 mM NaCl, 10 mM KCl, 1 mg/ml tRNA, 4% glycerol, RT 5 min; ~40 fmol RNA (legend); Methods say
Details: protein: recombinant; tags: His6; chain copies: 6; label: 32P; 3' terminator hairpin

Chain of Hfq (His6-tagged) (P0A6X3 whole entry): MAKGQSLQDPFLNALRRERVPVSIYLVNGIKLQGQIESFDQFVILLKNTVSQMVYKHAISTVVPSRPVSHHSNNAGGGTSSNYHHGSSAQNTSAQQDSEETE

B1: AgvB (EcOnc01) sRNA (structured_RNA)
RNA: CGAUAACACAACAAUAUCAGUAUCUCAUGCUAUUGCCCGAACCCAUUCGGGCAUUUUU
binding result: binds
